Reference: article PMC5007355

Columns and labels:
[1] = tested on: Fur (ferric uptake regulator) (Helicobacter pylori (strain G27?)); test: DNase I footprinting (full protection); settings: apo (150 uM 2,2'-dipyridyl); site fOPII; Footprinting: 15 fmol probe in 50 ul, 300 ng salmon sperm DNA, room temperature, 150 uM Fe2+ or dipyridyl; competitive buffer 20 mM HEPES pH 7.85, 50 mM KCl, 0.
[2] = tested on: Fur (ferric uptake regulator) (Helicobacter pylori (strain G27?)); test: DNase I footprinting (protection); settings: Footprinting: 15 fmol probe in 50 ul, 300 ng salmon sperm DNA, room temperature, 150 uM Fe2+ or dipyridyl, competitive buffer 20 mM HEPES pH 7.85, 50 mM KCl, 0.

ParsR wild-type footprinting probe
binding signal [1]: 30 nM | binding signal ([2]; apo (150 uM 2,2'-dipyridyl), site fOPI): 75 nM | binding signal ([2]; holo (150 uM Fe2+), site fOPI): 12 nM | binding signal ([2]; holo (150 uM Fe2+), site fOPIII (low affinity)): 125 nM
